# Experimental data taken from patent US5316935A, “Subtilisin variants suitable for hydrolysis and synthesis in organic media” (California Institute of Technology, priority 1992, dated 1994).
# What was measured:
# Type in all cases: biochemical, Bacillus subtilis
# [1] = substrate: C[C@H](NC(=O)CCC(=O)O)C(=O)N[C@@H](C)C(=O)N1CCC[C@H]1C(=O)N[C@@H](Cc1ccccc1)C(=O)Nc1ccc([N+](=O)[O-])cc1; assay: Amidase activity: hydrolysis of p-nitroanilide peptide substrates; conditions: 0.1M Tris-HCl, 10 mM CaCl2, pH 8, 37° C.
# Protocol: (§1) The amidase activities of subtilisin and derivatives thereof were measured on the substrate succinyl-Ala-Ala-Pro-Phe-p-nitroanilide (sAAPF-pna) at 37° C. in 0.1M Tris-HCl, pH 8.0 and 10 mM CaCl2. Assays were initiated by mixing the enzyme, the substrate and the reaction buffer. The amount of released p-nitroaniline was measured spectrophotometrically at 410 nm as a function of time. KM and kcat values for hydrolysis of sAAPF-pna by the subtilisin variants were obtained by nonlinear regression of the data using the program Enzfitter (Biosoft).
# (§2) For activity measurements in mixed buffer (containing DMF), a portion of the aqueous buffer was replaced by the percentage (w/v) of DMF indicated in Table II. Kinetic constants are reported in Table II for the wild-type enzyme and six variants with 3-10 amino acid substitutions in 20% and 40% DMF.
# (§3) The effects of different amino acid substitutions at position 103 on amidase activity were investigated. The variants Q103E, Q103K, and Q103S were constructed by PCR site-directed mutagenesis as described in Example VIII. The amidase activities of these variants and the variant Q103R identified by random mutagenesis and screening for enhanced activity in the presence of DMF (Example IV) are compared in Table III. The reactions were carried out in 10% DMF according to the procedures outlined in Examples XI and XII.
# The effects of the Q103R amino acid substitution on amidase activity were investigated for two substrates, succinyl-Ala-Ala-Pro-Phe-p-nitroanilide (negatively-charged succinyl group at the peptide N-terminus) and Ala-Ala-Pro-Phe-p-nitroanilide (positively charged N-terminus) in 10% DMF.
# [2] = substrate: C[C@H](NC(=O)CCC(=O)O)C(=O)N[C@@H](C)C(=O)N1CCC[C@H]1C(=O)N[C@@H](Cc1ccccc1)C(=O)Nc1ccc([N+](=O)[O-])cc1; assay: Amidase activity: hydrolysis of p-nitroanilide peptide substrate; conditions: other: 10% DMF, 0.1M Tris-HCl, 10 mM CaCl2, pH 8, 37° C.
# Protocol: as §1, §2, §3
# [3] = substrate: C[C@H](NC(=O)CCC(=O)O)C(=O)N[C@@H](C)C(=O)N1CCC[C@H]1C(=O)N[C@@H](Cc1ccccc1)C(=O)Nc1ccc([N+](=O)[O-])cc1; assay: as above; conditions: other: 0% DMF, 0.1M Tris-HCl, 10 mM CaCl2, pH 8, 37° C.
# Protocol: as §1, §2
Protein,Km [3] [µM],kcat [3] [s⁻¹],kcat/Km [3] [M^-1 s^-1 × 10^3],also measured
"Bacillus subtilis subtilisin E variant Q103R (Bacillus subtilis subsp. subtilis str. 168; A256V/Q209R) (protein, each contain 275 residues; made in house; host or cells: Bacillus subtilis DB428 (vector pKWC), secreted into the medium) AQSVPYGISQIKAPALHSQGYTGSNVKVAVIDSGIDSSHPDLNVRGGASFVPSETNPYQDGSSHGTHVAGTIAALNNSIGVLGVAPSASLYAVKVLDSTGSGRYSWIINGIEWAISNNMDVINMSLGGPTGSTALKTVVDKAVSSGIVVVAAAGNEGSSGSTSTVGYPAKYPSTIAVGAVNSSNQRASFSSAGSELDVMAPGVSIQSTLPGGTYGAYNGTSMATPHVAGAAALILSKHPTWTNAQVRDRLESTATYLGNSFYYGKGLINVQAAAQ",,,,Km ([1]; other: 0% DMF): 250 µM; kcat ([1]; other: 0% DMF): 31 s⁻¹; Km ([1]; other: 10% DMF (Table III)): 1300 µM; kcat ([1]; other: 10% DMF (Table III)): 34 s⁻¹; kcat/Km ([1]; other: 10% DMF (Table III)): 26 M^-1 s^-1 × 10^3
"Bacillus subtilis subtilisin E variant Q103S (Bacillus subtilis subsp. subtilis str. 168; A256V/Q209S) (protein, each contain 275 residues; made in house; host or cells: Bacillus subtilis DB428 (vector pKWC), secreted into the medium) AQSVPYGISQIKAPALHSQGYTGSNVKVAVIDSGIDSSHPDLNVRGGASFVPSETNPYQDGSSHGTHVAGTIAALNNSIGVLGVAPSASLYAVKVLDSTGSGSYSWIINGIEWAISNNMDVINMSLGGPTGSTALKTVVDKAVSSGIVVVAAAGNEGSSGSTSTVGYPAKYPSTIAVGAVNSSNQRASFSSAGSELDVMAPGVSIQSTLPGGTYGAYNGTSMATPHVAGAAALILSKHPTWTNAQVRDRLESTATYLGNSFYYGKGLINVQAAAQ",,,,Km [2]: 3000 µM; kcat [2]: 20 s⁻¹; kcat/Km [2]: 7.0 M^-1 s^-1 × 10^3
Bacillus subtilis subtilisin E variant 6M (D60N + Q103R + N218S + D97G + E156G + N181S) (Bacillus subtilis subsp. subtilis str. 168; … (protein) AQSVPYGISQIKAPALHSQGYTGSNVKVAVIDSGIDSSHPDLNVRGGASFVPSETNPYQNGSSHGTHVAGTIAALNNSIGVLGVAPSASLYAVKVLGSTGSGRYSWIINGIEWAISNNMDVINMSLGGPTGSTALKTVVDKAVSSGIVVVAAAGNGGSSGSTSTVGYPAKYPSTIAVGAVSSSNQRASFSSAGSELDVMAPGVSIQSTLPGGTYGAYSGTSMATPHVAGAAALILSKHPTWTNAQVRDRLESTATYLGNSFYYGKGLINVQAAAQ,40,12,268,
Bacillus subtilis subtilisin E variant 7M (D60N + Q103R + N218S + D97G + E156G + N181S + G131D) (Bacillus subtilis subsp. subtilis str. 168; … (protein) AQSVPYGISQIKAPALHSQGYTGSNVKVAVIDSGIDSSHPDLNVRGGASFVPSETNPYQNGSSHGTHVAGTIAALNNSIGVLGVAPSASLYAVKVLGSTGSGRYSWIINGIEWAISNNMDVINMSLGGPTDSTALKTVVDKAVSSGIVVVAAAGNGGSSGSTSTVGYPAKYPSTIAVGAVSSSNQRASFSSAGSELDVMAPGVSIQSTLPGGTYGAYSGTSMATPHVAGAAALILSKHPTWTNAQVRDRLESTATYLGNSFYYGKGLINVQAAAQ,30,18,606,
"Bacillus subtilis subtilisin E variant 4M (D60N + Q103R + N218S + D97G) (Bacillus subtilis subsp. subtilis str. 168; A256V/D166N/D203G/N324S/Q209R) (protein, each contain 275 residues; made in house; host or cells: Bacillus subtilis DB428 (vector pKWC), secreted into the medium) AQSVPYGISQIKAPALHSQGYTGSNVKVAVIDSGIDSSHPDLNVRGGASFVPSETNPYQNGSSHGTHVAGTIAALNNSIGVLGVAPSASLYAVKVLGSTGSGRYSWIINGIEWAISNNMDVINMSLGGPTGSTALKTVVDKAVSSGIVVVAAAGNEGSSGSTSTVGYPAKYPSTIAVGAVNSSNQRASFSSAGSELDVMAPGVSIQSTLPGGTYGAYSGTSMATPHVAGAAALILSKHPTWTNAQVRDRLESTATYLGNSFYYGKGLINVQAAAQ",170,43,249,
